# Data: patent US6566047B1, “Method for identifying neurite-growth promoting agents” (The Regents of the University of Colorado, priority 1998, dated 2003)
# B1: BDNF: brain-derived neurotrophic factor (protein, UniProt P23560 19-247, looked up)
# Neurotrophic factor BDNF …: APMKEANIRGQGGLAYPGVRTHGTLESVNGPKAGSRGLTSLADTFEHVIEELLDEDQKVRPNEENNKDADLYTSRVMLSSQVPLEPPLLFLLEEYKNYLDAANMSMRVRRHSDPARRGELSVCDSISEWVTAADKKTAVDMSGGTVTVLEKVPVSKGQLKQYFYETKCNPMGYTKEGCRGIDKRHWNSQCRTTQSYVRALTMDSKKRIGWRFIRIDTSCVCTLTIKRGR
# B2: SemaIV: recombinant semaphorin IV, repellent and putative tumor suppressor (protein, UniProt Q13275 19-785, looked up)
# Semaphorin-3F: SFPTQDHLPATPRVRLSFKELKATGTAHFFNFLLNTTDYRILLKDEDHDRMYVGSKDYVLSLDLHDINREPLIIHWAASPQRIEECVLSGKDVNGECGNFVRLIQPWNRTHLYVCGTGAYNPMCTYVNRGRRAQATPWTQTQAVRGRGSRATDGALRPMPTAPRQDYIFYLEPERLESGKGKCPYDPKLDTASALINEELYAGVYIDFMGTDAAIFRTLGKQTAMRTDQYNSRWLNDPSFIHAELIPDSAERNDDKLYFFFRERSAEAPQSPAVYARIGRICLNDDGGHCCLVNKWSTFLKARLVCSVPGEDGIETHFDELQDVFVQQTQDVRNPVIYAVFTSSGSVFRGSAVCVYSMADIRMVFNGPFAHKEGPNYQWMPFSGKMPYPRPGTCPGGTFTPSMKSTKDYPDEVINFMRSHPLMYQAVYPLQRRPLVVRTGAPYRLTTIAVDQVDAADGRYEVLFLGTDRGTVQKVIVLPKDDQELEELMLEEVEVFKDPAPVKTMTISSKRQQLYVASAVGVTHLSLHRCQAYGAACADCCLARDPYCAWDGQACSRYTASSKRRSRRQDVRHGNPIRQCRGFNSNANKNAVESVQYGVAGSAAFLECQPRSPQATVKWLFQRDPGDRRREIRAEDRFLRTEQGLLLRALQLSDRGLYSCTATENNFKHVVTRVQLHVLGRDAVHAALFPPLSMSAPPPPGAGPPTPPYQELAQLLAQPEVGLIHQYCQGYWRHVPPSPREAPGAPRSPEPQDQKKPRNRRHHPPDT
# Tests used:
# growth cone PLA2 = experiment: PLA2 assay in growth cone particles (GCPs); format: biochemical, rat; details: GCPs
# Procedure: Growth Cone Particle (GCP) Isolation. GCPs were prepared as described by Pfenninger et al. (1983) and modified by Lohse et al., Dev. Brain Res., 96:38-96 (1996). Briefly, 18-day fetal brains were homogenized in approximately 8 volumes of 0.32 M sucrose containing 1 mM MgCl2, 2 mM TES buffer, pH 7.3, and 3 μM aprotinin. A low-speed supernatant (1,660 g×15 min) was loaded onto a discontinuous sucrose density gradient With steps of 0.83 M and 2.66 M sucrose containing MgCl2 and TES. The gradients were spun to equilibrium at 242,000 g for 40 min in a vertical rotor (Vti50, Beckman). The GCP fraction at the 0.32/0.83 M sucrose interface was collected and used for the experiments described below.
# All assays were run in triplicate.
# MAT-Lu cells = experiment: Pseudopod morphometry (pseudopod length assay), MAT-Lu cells; format: cell-based, rat; details: typically 15 min exposure
# Procedure: Pseudopod Morphometry. To study the effects of various agents on pseudopods on a short-term basis, we measured pseudopod lengths. Cells plated in 35-mm diameter dishes at low density (1×10^4 per dish) were incubated overnight, tie medium was changed, and the experiments were run four hours later. First, cultures were shifted to serum-free medium, which was replaced one hour later by serum-free medium with or without the various agents (thrombin, AA or HETEs). Care was taken to avoid heat and light inactivation of the eicosanoids. Culture dishes were placed on a Zeiss inverted microscope equipped with a heated stage and viewed with a 16×phase contrast objective lens. Randomly selected fields of the cultures, containing generally about 20 cells each, were recorded, digitized and stored in the computer at the onset of the experiment and at different times thereafter.
# In some cases, individual cells were monitored over different periods of time immediately after introduction of the reagent, either by mixing it into the medium or by applying it locally to one end of the cell. […] Cell morphology was recorded, and the captured images were analyzed with a Power Macintosh computer using NIH Image. Cell process length was measured from the center of the nucleus to the end of the process. […]
# cPLA2 = experiment: PLA2 activity (14C-AA release) in MAT-Lu cells; format: biochemical, rat; details: dose-dependent
# Procedure: MAT-Lu cells were plated at a density of 0.5×10^6 cells per flask (T-75) and grown as detailed above to approximately 25% confluency. On the day before the experiments, the serum level in the medium was dropped to 1%. Cells were fed with fresh 1% serum-medium 4 hrs prior to harvest. For harvesting, cells were rinsed with Ca^++,Mg^++-free HBSS, covered with 2 ml cold Ca^++-free modified Krebs buffer (220 mM sucrose, 50 mM NaCl, 5 mM KCl, 22 mM HEPES, 10 mM glucose. 1.2 mM NaH2PO4 and 1.2 mM MgCl2, pH 7.3), and placed on ice. Cells were scraped off, pelleted for 5 min at 200 rpm and re-suspended in a minimal volume of Krebs buffer. Aliquots were used to determine protein concentration (Biorad Assay) and phopholipase activity. To measure PLA2 activity 10-12 μg of cell protein was incubated with or without thrombin for 10 min on ice, ^14C-AA-labeled phospholipid substrate (7 μM. 40-60 mCi/mmol) was added, and the mixture was transferred to 37° for 20 min. The reaction was stopped by adding cold cliloroform/methanol (1:2 v/v). Lipid extraction followed by thin-layer chromatography (Negre-Aminou et al., J Neurochem 67:2599-2608 (1996)) isolated the reaction product (identified by co-migration with AA standard), which was then scraped off the plates and analyzed in a scintillation spectrometer (Beckman). In some experiments, especially those involving ^14C-AA-phosphatidylinositol as substrate, the diacylglycerol-containing band (identified by co-migration of standard) also was scraped and counted in order to measure phospholipase C (PLC) activity.
Molecule,activation of growth cone cPLA2/PLA2 (growth cone PLA2),"net activity (pmol/min/mg protein) (growth cone PLA2; Table 3c, substrate PI, BDNF 100, IGF-1 0.75, insulin 1, thrombin 200 nM, control 159 ± 6.2)",effect of agent alone on pseudopod length (MAT-Lu cells),increase of cPLA2-PE activity (cPLA2)
B1,did not significantly stimulate PLA2 activity,164 ± 10.6 pmol/min/mg protein,–,–
B2,dose-dependent activation of growth cone cPLA2,–,causes pseudopod retraction in MAT-Lu cells,several fold
